Reference: article PMC10380293 (International Journal of Molecular Sciences, 2023)
Values joined by “and” are separate entries in the source; they are usually repeats but may differ in a detail not shown here. Equal values may be shown once.

What was measured:
[1] = molecular target: mScarlet-I-PCNA (human, UniProt P12004 1-261); assay: FRET or BRET; competition: 1 µM p15-mNeonGreen and 1 µM mScarlet-I-PCNA with varying inhibitor (0-100 µM p15^51-70, 0-20 µM unlabeled PCNA), 1 h at 37 °C, PBS with 1 mM DTT; sensitized emission; Ki by the Cheng-Prusoff equation; settings: both partners purified
mScarlet-I-PCNA, sequence (P12004 whole entry): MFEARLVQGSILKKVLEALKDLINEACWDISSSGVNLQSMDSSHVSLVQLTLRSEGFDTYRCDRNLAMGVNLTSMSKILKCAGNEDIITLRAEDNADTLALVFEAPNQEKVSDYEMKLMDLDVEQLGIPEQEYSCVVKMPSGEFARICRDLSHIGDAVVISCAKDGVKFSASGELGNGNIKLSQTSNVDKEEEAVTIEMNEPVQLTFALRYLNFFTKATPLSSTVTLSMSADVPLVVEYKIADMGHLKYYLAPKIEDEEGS

[2] = molecular target: mScarlet-I-PCNA^C148S (human, UniProt P12004 1-261, C148S); assay: FRET or BRET; 1 µM p15-mNeonGreen (donor) with 0-3.09 µM mScarlet-I-PCNA (acceptor, protomer concentration) in PBS with 1 mM DTT, 37 °C for 1 h, 384 well plate; sensitized emission by the three-channel method, control mNeonGreen/mScarlet-I-PCNA subtracted; apparent for C148S; settings: both partners purified
mScarlet-I-PCNA^C148S, sequence (P12004 whole entry C148S): as the sequence (P12004 whole entry) above, with C148S counted along it

Row | Binder | IC50 [1] [µM] | Ki [1] | Kd [2] [µM]
1 | NPVCVRPTPKWQKGIGEFFR [peptide p15^51–70] | 9.81 | 2.94 µM and 2.99 µM | 
2 | p15-mNeonGreen (natural protein, UniProt Q15004 1-111, looked up) MVRTKADSVPGTYRKVVAARAPRKVLGSSTSATNSTSVSSRKAENKYAGGNPVCVRPTPKWQKGIGEFFRLSPKDSEKENQIPEEAGSSGLGKAKRKACPLQPDHTNDEKE |  |  | 3.09
